The supplement of paper PMC9112550, “Optimization of the antimicrobial peptide Bac7 by deep mutational scanning” (BMC Biology, 2022)

system: Escherichia coli TOP10; experiment: shrunken log2 fold change of peptide-encoding DNA abundance (4.5 h post-induction vs induction); higher = less antimicrobial activity (less host growth inhibition); details: time post-induction: 4.5 h; library: site-saturation at positions 5, 18, 19, 20
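Further: peptides expressed intracellularly from a pBAD plasmid library in pooled LB shake-flask culture, induced with 0.3% L-arabinose, DNA abundance read by NGS, three biological replicates, DESeq2 with apeglm shrinkage.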

Sequence | shrunken log2 fold change
RRIRKRPPRLPRPRPRPYTAPRP | -0.338
RRIRWRPPRLPRPRPRPRAFPRP | 0.57
RRIRDRPPRLPRPRPRPCFVPRP | 0.0784
RRIRERPPRLPRPRPRPPNSPRP | -0.148
RRIRPRPPRLPRPRPRPNLHPRP | -0.203
RRIRNRPPRLPRPRPRPAPHPRP | 0.227
RRIRCRPPRLPRPRPRPRSRPRP | 0.299
RRIRMRPPRLPRPRPRPQQHPRP | 0.0483
RRIRQRPPRLPRPRPRPEVLPRP | 0.0411
RRIRDRPPRLPRPRPRPNAFPRP | -0.0726
RRIRWRPPRLPRPRPRPPLEPRP | 0.474
RRIRRRPPRLPRPRPRPQPVPRP | 0.299
RRIRMRPPRLPRPRPRPIPHPRP | 0.246
RRIRTRPPRLPRPRPRPWGPPRP | -0.0265
RRIRFRPPRLPRPRPRPSLPPRP | 0.0593
RRIRRRPPRLPRPRPRPGNAPRP | 0.304
RRIRWRPPRLPRPRPRPIIIPRP | 0.117
RRIRYRPPRLPRPRPRPPFIPRP | -0.637
RRIRNRPPRLPRPRPRPKRLPRP | -0.0121
RRIRYRPPRLPRPRPRPSTEPRP | -0.435
RRIRTRPPRLPRPRPRPCLEPRP | -0.279
RRIRERPPRLPRPRPRPTCGPRP | 0.497

Sequence | shrunken log2 fold change
RRIRHRPPRLPRPRPRPTTIPRP | -0.165
RRIRNRPPRLPRPRPRPFCFPRP | 0.567
RRIRSRPPRLPRPRPRPHMKPRP | 0.427
RRIRMRPPRLPRPRPRPLIYPRP | -0.0335
RRIRLRPPRLPRPRPRPAVPPRP | 0.3
RRIRQRPPRLPRPRPRPVIRPRP | -0.406
RRIRLRPPRLPRPRPRPFGLPRP | -0.114
RRIRARPPRLPRPRPRPMCDPRP | 0.526
RRIRWRPPRLPRPRPRPCADPRP | 0.579
RRIRDRPPRLPRPRPRPQKPPRP | -0.00349
RRIRMRPPRLPRPRPRPRVTPRP | 0.467
RRIRTRPPRLPRPRPRPFYRPRP | -0.189
RRIRMRPPRLPRPRPRPGMFPRP | 0.341
RRIRMRPPRLPRPRPRPWRYPRP | 0.166
RRIRQRPPRLPRPRPRPPYIPRP | -0.449
RRIRPRPPRLPRPRPRPIQDPRP | -0.239
RRIRMRPPRLPRPRPRPCNSPRP | -0.138
RRIRSRPPRLPRPRPRPMKKPRP | -0.0833
RRIRSRPPRLPRPRPRPDQGPRP | -0.196
RRIRARPPRLPRPRPRPGREPRP | 0.388
RRIRWRPPRLPRPRPRPMPKPRP | 0.115
RRIRHRPPRLPRPRPRPKLSPRP | 0.0757

Sequence | shrunken log2 fold change
RRIRYRPPRLPRPRPRPYQRPRP | -0.00973
RRIRMRPPRLPRPRPRPCRSPRP | 0.0369
RRIRCRPPRLPRPRPRPTCKPRP | -0.184
RRIRRRPPRLPRPRPRPCPRPRP | 0.0796
RRIRERPPRLPRPRPRPWTQPRP | -0.298
RRIRDRPPRLPRPRPRPGFAPRP | 0.992
RRIRLRPPRLPRPRPRPFNHPRP | -0.249
RRIRYRPPRLPRPRPRPFGKPRP | -0.0625
RRIRARPPRLPRPRPRPPGTPRP | 0.898
RRIRLRPPRLPRPRPRPTMTPRP | -0.256
RRIRSRPPRLPRPRPRPWRVPRP | 0.108
RRIRIRPPRLPRPRPRPMFVPRP | -0.279
RRIRVRPPRLPRPRPRPMMFPRP | -0.0953
RRIRLRPPRLPRPRPRPHGNPRP | -0.186
RRIRTRPPRLPRPRPRPNWIPRP | -0.289
RRIRRRPPRLPRPRPRPAVPPRP | 0.146
RRIRERPPRLPRPRPRPEIWPRP | 0.417
RRIRNRPPRLPRPRPRPQVSPRP | -0.434
RRIRMRPPRLPRPRPRPGGCPRP | 0.888
RRIRFRPPRLPRPRPRPSHKPRP | -0.121
RRIRWRPPRLPRPRPRPTQFPRP | 0.0858
RRIRCRPPRLPRPRPRPKLRPRP | 0.564

Sequence | shrunken log2 fold change
RRIRCRPPRLPRPRPRPITMPRP | -0.309
RRIRLRPPRLPRPRPRPAQWPRP | -0.0397
RRIRERPPRLPRPRPRPPWFPRP | 0.0508
RRIRGRPPRLPRPRPRPNDEPRP | 0.482
RRIRTRPPRLPRPRPRPCQNPRP | 0.031
RRIRSRPPRLPRPRPRPMQYPRP | -0.289
RRIRMRPPRLPRPRPRPCLGPRP | 0.0639
RRIRLRPPRLPRPRPRPPWAPRP | 0.632
RRIRARPPRLPRPRPRPALVPRP | 0.597
RRIRCRPPRLPRPRPRPKGGPRP | 0.094
RRIRIRPPRLPRPRPRPSYCPRP | -0.408
RRIRMRPPRLPRPRPRPDYSPRP | -0.0167
RRIRPRPPRLPRPRPRPSMLPRP | -0.186
RRIRCRPPRLPRPRPRPEARPRP | 0.193
RRIRERPPRLPRPRPRPKIQPRP | -0.259
RRIRCRPPRLPRPRPRPFYIPRP | -0.58
RRIRERPPRLPRPRPRPGCGPRP | 0.307
RRIRVRPPRLPRPRPRPLVGPRP | 0.726
RRIRNRPPRLPRPRPRPPIKPRP | -0.279
RRIRTRPPRLPRPRPRPMTPPRP | 0.126
RRIRERPPRLPRPRPRPGRLPRP | -0.263
RRIRMRPPRLPRPRPRPGYTPRP | -0.177

Sequence | shrunken log2 fold change
RRIRCRPPRLPRPRPRPPWPPRP | 0.54
RRIRDRPPRLPRPRPRPMHNPRP | -0.696
RRIRYRPPRLPRPRPRPKRYPRP | -0.0281
RRIRVRPPRLPRPRPRPSNYPRP | -0.342
RRIRDRPPRLPRPRPRPFSTPRP | -0.0877
RRIRQRPPRLPRPRPRPQIWPRP | 0.0984
RRIRYRPPRLPRPRPRPEFIPRP | -0.628
RRIRDRPPRLPRPRPRPPRFPRP | 0.315
RRIRRRPPRLPRPRPRPYLRPRP | 0.0234
RRIRMRPPRLPRPRPRPMDEPRP | 2.34
RRIRWRPPRLPRPRPRPKPFPRP | 0.323
RRIRTRPPRLPRPRPRPGPPPRP | 0.404
RRIRTRPPRLPRPRPRPNASPRP | -0.0378
RRIRKRPPRLPRPRPRPEAFPRP | 0.434
RRIRARPPRLPRPRPRPQHFPRP | 3.55
RRIRVRPPRLPRPRPRPTNEPRP | -0.0806
RRIRVRPPRLPRPRPRPFLWPRP | -0.698
RRIRVRPPRLPRPRPRPSTLPRP | -0.166
RRIRWRPPRLPRPRPRPVWLPRP | 0.284
RRIRDRPPRLPRPRPRPPFDPRP | 0.422
RRIRERPPRLPRPRPRPREKPRP | 0.354
